Laboratory results from patent publication US20250346679A1 (INVOX PHARMA, published 2025).
Changes are numbered by the printed parent chain. Numbers in names are those of the source.

T1: mouse GITR (R&D Systems, biotinylated) (mouse, UniProt O35714 22-153, limits assumed, biotinylated)
T1 sequence (looked up): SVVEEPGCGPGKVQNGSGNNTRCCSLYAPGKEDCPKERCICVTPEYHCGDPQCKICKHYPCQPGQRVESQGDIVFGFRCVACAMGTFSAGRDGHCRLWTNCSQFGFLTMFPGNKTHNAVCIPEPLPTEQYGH

T2: human OX40 (human, UniProt P43489 29-216)
T2 sequence (looked up): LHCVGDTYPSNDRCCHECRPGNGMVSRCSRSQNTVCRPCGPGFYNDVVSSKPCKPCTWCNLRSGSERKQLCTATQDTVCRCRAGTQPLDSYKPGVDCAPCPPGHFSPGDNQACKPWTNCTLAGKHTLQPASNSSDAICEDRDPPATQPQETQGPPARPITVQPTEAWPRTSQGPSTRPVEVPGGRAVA

T3: human GITR (human, UniProt Q9Y5U5 26-161, limits assumed)
T3 sequence (looked up): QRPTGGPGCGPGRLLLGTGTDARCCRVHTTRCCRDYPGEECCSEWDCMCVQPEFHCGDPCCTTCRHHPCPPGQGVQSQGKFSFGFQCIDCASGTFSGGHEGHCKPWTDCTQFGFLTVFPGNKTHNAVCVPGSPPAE

T4: cCD137-mFc-Avi (cynomolgus; mouse)
T4 construct: also called cynomolgus CD137-mFc-Avi; Cyno CD137-mFc-Avi; not shown: mouse IgG2a Fc domain (mIgG2a Fc)
T4 chain: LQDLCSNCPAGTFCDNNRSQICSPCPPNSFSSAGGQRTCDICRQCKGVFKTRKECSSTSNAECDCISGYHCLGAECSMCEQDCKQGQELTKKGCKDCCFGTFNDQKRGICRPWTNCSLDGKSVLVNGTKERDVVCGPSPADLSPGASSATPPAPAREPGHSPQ

T5: mouse CD137 ligand on DO11.10 cells (mouse, UniProt P41274 1-309)
T5 construct: whole, on cells
T5 sequence (looked up): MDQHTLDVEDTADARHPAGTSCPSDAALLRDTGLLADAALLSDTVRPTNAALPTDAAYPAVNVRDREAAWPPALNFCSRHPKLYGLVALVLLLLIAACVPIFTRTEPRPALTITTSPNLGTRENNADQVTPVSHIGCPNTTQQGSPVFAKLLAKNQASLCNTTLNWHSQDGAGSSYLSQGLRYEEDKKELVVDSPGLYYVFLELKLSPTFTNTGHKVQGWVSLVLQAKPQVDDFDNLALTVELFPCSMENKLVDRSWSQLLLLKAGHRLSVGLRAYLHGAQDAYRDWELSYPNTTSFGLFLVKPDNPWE

B1: FS22m-063 in HeID1.3 mock mAb^2 format (bispecific antibody)
heavy: QVQLQESGPGLVRPSQTLSLTCTVSGSTFSGYGVNWVRQPPGRGLEWIGMIWGDGNTDYNSALKSRVTMLVDTSKNQFSLRLSSVTAADTAVYYCARERDYRLDYWGQGSLVTVSSASTKGPSVFPLAPSSKSTSGGTAALGCLVKDYFPEPVTVSWNSGALTSGVHTFPAVLQSSGLYSLSSVVTVPSSSLGTQTYICNVNHKPSNTKVDKKVEPKSCDKTHTCPPCPAPELLGGPSVFLFPPKPKDTLMISRTPEVTCVVVDVSHEDPEVKFNWYVDGVEVHNAKTKPREEQYNSTYRVVSVLTVLHQDWLNGKEYKCKVSNKALPAPIEKTISKAKGQPREPQVYTLPPSRDEPYWSYVSLTCLVKGFYPSDIAVEWESNGQPENNYKTTPPVLDSDGSFFLYSKLTVMNYRWELGNVFSCSVMHEALHNHYTQKSLSLSPG
light: DIQMTQSPASLSASVGETVTITCRASGNIHNYLAWYQQKQGKSPQLLVYNAKTLADGVPSRFSGSGSGTQYSLKINSLQPEDFGSYYCQHFWSTPRTFGGGTKLEIKRTVAAPSVFIFPPSDEQLKSGTASVVCLLNNFYPREAKVQWKVDNALQSGNSQESVTEQDSKDSTYSLSSTLTLSKADYEKHKVYACEVTHQGLSSPVTKSFNRGEC
notes: anti-mouse CD137 Fcab
B2: FS22-053-017 in HeID1.3 mock mAb^2 format (bispecific antibody)
heavy: QVQLQESGPGLVRPSQTLSLTCTVSGSTFSGYGVNWVRQPPGRGLEWIGMIWGDGNTDYNSALKSRVTMLVDTSKNQFSLRLSSVTAADTAVYYCARERDYRLDYWGQGSLVTVSSASTKGPSVFPLAPSSKSTSGGTAALGCLVKDYFPEPVTVSWNSGALTSGVHTFPAVLQSSGLYSLSSVVTVPSSSLGTQTYICNVNHKPSNTKVDKKVEPKSCDKTHTCPPCPAPELLGGPSVFLFPPKPKDTLMISRTPEVTCVVVDVSHEDPEVKFNWYVDGVEVHNAKTKPREEQYNSTYRVVSVLTVLHQDWLNGKEYKCKVSNKALPAPIEKTISKAKGQPREPQVYTLPPSRDELNPPYLFSNQVSLTCLVKGFYPSDIAVEWESNGQPENNYKTTPPVLDSDGSFFLYSKLTVYHWRWLEGNVFSCSVMHEALHNHYTQKSLSLSPG
light: B1 light
notes: FS22-053-014 with D98E (IMGT, CH3); range 1-339 derived by counting; also called FS22-053-17
B3: FS22-053-014/HeID1.3 (bispecific antibody, human IgG1, kappa)
heavy: B2 heavy with E423D
light: B1 light
notes: mock mAb^2; also called FS22-053-014 (mock mAb^2 format); FS22-053-14
B4: mCD137-mFc-Avi (Fc fusion)
chain: VQNSCDNCQPGTFCRKYNPVCKSCPPSTFSSIGGQPNCNICRVCAGYFRFKKFCSSTHNAECECIEGFHCLGPQCTRCEKDCRPGQELTKQGCKTCSLGTFNDQNGTGVCRPWTNCSLDGRSVLKTGTTEKDVVCGPPVVSFSPSTTISVTPEGGPGGHSLQVL
notes: also called mouse CD137-mFc-Avi; mouse dimeric CD137; not shown: mouse IgG2a Fc domain (mIgG2a Fc)

Tests used:
[1] = biological target: T6, mouse CD137, cell-surface (mouse, UniProt P20334 24-256); test: cell-based or functional assay
[2] = biological target: T6, mouse CD137, cell-surface; test: cell-based or functional assay; remark: listed apart in the source
[3] = biological target: mouse CD40 (R&D Systems, biotinylated) (mouse, UniProt P27512 24-193, limits assumed, biotinylated); test: BLI (Octet), biotinylated receptor on streptavidin sensors
Chain of mouse CD40 (R&D Systems, biotinylated) (P27512 24-193 limits assumed): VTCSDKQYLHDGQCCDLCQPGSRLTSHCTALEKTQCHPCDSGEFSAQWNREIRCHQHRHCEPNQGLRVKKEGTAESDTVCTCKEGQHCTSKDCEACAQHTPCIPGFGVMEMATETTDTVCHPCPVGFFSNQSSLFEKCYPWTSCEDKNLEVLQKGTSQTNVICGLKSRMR
Procedure: (§1) The specificity of the anti-mouse CD137 Fcabs for mouse CD137 was tested in HeID1.3 “mock” mAb² format and measured by BLI in an Octet QKe system by testing for binding of the Fcabs to other mouse TNFRSF receptors (CD40, OX40, GITR). […] Anti-mouse CD137 Fcabs in mock mAb² format were diluted 1:1 in kinetic buffer (PALL 18-1092) to a final concentration of at least 1 μM. Antigen-coated sensors were dipped into the mAb² solutions for 180 seconds followed by 180 seconds in 1×kinetic buffer. Antibodies for each of the TNFRSF receptors were used as positive controls.

[4] = biological target: T1, mouse GITR (R&D Systems, biotinylated); test: as above
Procedure: as §1

[5] = biological target: B4; test: SPR (Biacore T200)
[6] = biological target: human CD40 (human, UniProt P25942 21-193, limits assumed); test: SPR, receptor amine-coupled to CM5 (~1000 RU)
Chain of human CD40 (P25942 21-193 limits assumed): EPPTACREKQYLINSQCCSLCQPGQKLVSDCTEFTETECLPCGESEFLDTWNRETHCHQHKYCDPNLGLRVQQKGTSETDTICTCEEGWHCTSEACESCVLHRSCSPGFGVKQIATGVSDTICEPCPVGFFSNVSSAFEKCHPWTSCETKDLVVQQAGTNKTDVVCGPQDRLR
Procedure: (§2) The specificity of the anti-human CD137 Fcabs for human CD137 compared to other related TNFSFR family members was tested. 8 of the Fcabs were tested in mock mAb² (HeID1.3) format and measured by SPR in a Biacore T200 (GE Healthcare) by testing for binding to other human TNFRSF receptors: CD40, OX40 and GITR. Amine coupling (amine coupling kit, GE Healthcare, BR-1000-50) was used to coat human CD40, GITR and OX40 to approximately 1000 RU in Biacore CM5 chips (GE Healthcare, cat no 29149603). […] The chip was regenerated by injection of 10 mM glycine pH 2.5 for 12 s at 30 μl/min. Antibodies specific to the different TNFRSF members were used as positive controls to verify Biacore chip coating. Data was double reference subtracted and analysed using BIAevaluation 3.2 software.

[7] = biological target: T2, human OX40; test: SPR, receptor amine-coupled to CM5 (~1000 RU)
Procedure: as §2

[8] = biological target: T3, human GITR; test: SPR, receptor amine-coupled to CM5 (~1000 RU)
Procedure: as §2

[9] = biological target: T7, hCD137-mFc-Avi (human; mouse, UniProt Q07011 24-186, biotin on the Avi sequence where the biotinylated form was used); test: SPR, mAb^2 captured by anti-human Fab, antigen in flow, 1:1 Langmuir fit
T7 construct: also called human CD137-mFc-Avi; dimeric human CD137; not shown: mouse IgG2a Fc domain (mIgG2a Fc)
T7 sequence (Q07011 24-186): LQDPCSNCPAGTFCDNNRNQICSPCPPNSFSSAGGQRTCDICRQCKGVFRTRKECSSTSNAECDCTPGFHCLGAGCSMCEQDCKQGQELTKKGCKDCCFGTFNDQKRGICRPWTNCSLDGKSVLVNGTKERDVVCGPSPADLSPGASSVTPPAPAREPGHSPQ
Procedure: (§3) An anti-human Fab capture antibody was immobilised on all four flow cells of a CM5 series S chip (GE Healthcare #BR-1005-30) to an average surface density of 6000 RU following the manufacturer's recommendations (GE Healthcare, human Fab capture Kit, #28958325). […] Each mAb² was captured to approximately 150 RU by injecting a 3 μg/ml solution of mAb² diluted in HBS-EP+ buffer (GE Healthcare #BR1006-69) for 60 seconds at 30 μl/min. Then different concentrations of human, cyno or mouse CD137 antigen (unbiotinylated human, cyno or mouse CD137-mFc-Avi or human CD137-Avi-His) in HBS-EP+ buffer were flowed over the chip for 3 min at 60 μl/min and then allowed to dissociate for 10 minutes. After each antigen concentration the chip was regenerated by infecting 10 mM glycine pH 2.1 at a flow rate of 30 μl/min for 30 seconds. Buffer HBS-EP+ was injected before the highest concentration of antigen and after the lowest concentration of antigen for reference subtraction, and one of the concentrations at random was repeated twice. The binding kinetics were fit with a 1:1 Langmuir model to generate equilibrium binding constants (KD) for each sample. Data analysis was performed with BiaEvaluation software version 3.2.

[10] = biological target: T8, hCD137-Avi-His (human, UniProt Q07011 24-186); test: as above
T8 construct: also called human CD137-Avi-His; monomeric human CD137
T8 sequence (Q07011 24-186): as above
Procedure: as §3

[11] = biological target: T4, cCD137-mFc-Avi; test: as above
Procedure: as §3

[12] = biological target: B4; test: as above
Procedure: as §3

[13] = biological target: T5, mouse CD137 ligand on DO11.10 cells; test: flow cytometry, anti mouse Fc detection
Procedure: In more detail, materials from the same production lot were mixed together and analysed for stability and purity by size-exclusion high-performance liquid chromatography (SE-HPLC), SDS polyacrylamide gel electrophoresis (SDS-PAGE), and size-exclusion chromatography with multi-angle light scattering (SEC-MALS). […] Cells were incubated with the CD137 antigens for 1 hour, and then a fluorescently-labelled anti mouse Fc fragment antibody was used to detect cell binding.

Binder: B1
EC50 upon Protein L crosslinking, NF-κB luciferase assay (HEK.FRT.luc.mCD137) [1]: 1.44 nM
fold-change in activity upon crosslinking, NF-κB luciferase assay (HEK.FRT.luc.mCD137) [1]: 27 fold
+XL EC50 (nM), mouse CD137 DO11.10 T cell activation assay [2]: 0.39 nM
+XL Emax (IL-2 pg/ml), mouse CD137 DO11.10 T cell activation assay [2]: 24200 pg/mL
binding result [3]: no binding (tested: at least 1 µM)
binding result [4]: no binding (tested: at least 1 µM)

Binder: B2
fold decrease in binding strength against FS22-053-014 [5]: 2 fold
+XL EC50 (nM), mouse CD137 DO11.10 T cell activation assay [2]: 16.7 nM
+XL Emax (IL-2 pg/ml), mouse CD137 DO11.10 T cell activation assay [2]: 41000 pg/mL

Binder: B3
+XL EC50 (nM), mouse CD137 DO11.10 T cell activation assay [2]: 2.04 nM
+XL Emax (IL-2 pg/ml), mouse CD137 DO11.10 T cell activation assay [2]: 28100 pg/mL
binding result [6]: no binding (tested: 1 µM)
binding result [7]: no binding (tested: 1 µM)
binding result [8]: no binding (tested: 1 µM)
Kd [9]: 3.2 nM
Human monomeric CD137 KD fold difference relative to human dimeric KD [10]: 100 fold
Kd [11]: 0.9 nM
Kd [12]: 24 nM

Binder: B4
binding result [13]: binds
